From publication PMC5038328, “IMP-27, a Unique Metallo-β-Lactamase Identified in Geographically Distinct Isolates of Proteus mirabilis” (Antimicrobial Agents and Chemotherapy, 2016)

What was measured:
IMP-27 [1] = target: T1, IMP-27 (Proteus mirabilis, UniProt F8UQX1); experiment: inhibition of nitrocefin hydrolysis, spectrophotometric initial rates; assay type: biochemical
T1 construct: gene PCR amplified from 2009 isolate DNA, pET-9a, E. coli BL21(DE3)/pLysS; KF501391 is the class 2 integron record

[2] = test system: C[C@@H](O)[C@H]1C(=O)N2C(C(=O)O)=C(S[C@@H]3CN[C@H](C(=O)N(C)C)C3)[C@H](C)[C@H]12; experiment: competition with nitrocefin hydrolysis, spectrophotometric; assay type: biochemical, Proteus mirabilis; conditions: Km measured as Ki with nitrocefin as reporter substrate
Description: (§1) competition with nitrocefin hydrolysis, spectrophotometric on IMP-27

[3] = test system: C[C@@H](O)[C@H]1C(=O)N2C(C(=O)O)=C(SCCN=CN)C[C@H]12; experiment: as above; assay type: biochemical, Proteus mirabilis; conditions: Km measured as Ki with nitrocefin as reporter substrate
Description: as §1

[4] = test system: CO/N=C(\C(=O)N[C@@H]1C(=O)N2C(C(=O)[O-])=C(C[N+]3(C)CCCC3)CS[C@H]12)c1csc(N)n1; experiment: spectrophotometric initial hydrolysis rates; assay type: biochemical, Proteus mirabilis
Description: (§2) spectrophotometric initial hydrolysis rates on IMP-27

[5] = test system: O=C(Cc1cccs1)N[C@@H]1C(=O)N2C(C(=O)O)=C(/C=C/c3ccc([N+](=O)[O-])cc3[N+](=O)[O-])CS[C@H]12; experiment: spectrophotometric initial hydrolysis rates; assay type: biochemical, Proteus mirabilis
Description: as §2

[6] = test system: CO/N=C(\C(=O)N[C@@H]1C(=O)N2C(C(=O)O)=C(COC(C)=O)CS[C@H]12)c1csc(N)n1; experiment: spectrophotometric initial hydrolysis rates; assay type: biochemical, Proteus mirabilis
Description: as §2

[7] = test system: CC(C)(O/N=C(\C(=O)N[C@@H]1C(=O)N2C(C(=O)[O-])=C(C[n+]3ccccc3)CS[C@H]12)c1csc(N)n1)C(=O)O; experiment: spectrophotometric initial hydrolysis rates; assay type: biochemical, Proteus mirabilis
Description: as §2

IMP-27 [8] = target: T1, IMP-27; experiment: spectrophotometric initial rates; assay type: biochemical
Description: spectrophotometric initial rates on IMP-27

T1 sequence (F8UQX1 entry or part of it): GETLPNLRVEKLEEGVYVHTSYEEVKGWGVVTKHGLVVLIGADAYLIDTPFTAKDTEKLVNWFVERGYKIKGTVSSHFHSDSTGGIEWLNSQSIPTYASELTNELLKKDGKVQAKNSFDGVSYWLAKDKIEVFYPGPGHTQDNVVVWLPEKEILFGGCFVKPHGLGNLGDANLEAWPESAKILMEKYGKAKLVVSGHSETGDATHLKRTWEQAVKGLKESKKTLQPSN

Molecule: O=C(O)CN(CCN(CC(=O)O)CC(=O)O)CC(=O)O [EDTA]
- Ki (IMP-27 [1]; read-out: Ki): 11 ± 0.9 mM

Molecule: IMP-27 (Proteus mirabilis)
- Km [2]: 2.3 ± 0.8 µM
- kcat [2]: 3.4 ± 0.53 s⁻¹
- kcat/Km [2]: 1.5e+06 M⁻¹ s⁻¹
- Km [3]: 310 ± 19 µM
- kcat [3]: 34 ± 0.38 s⁻¹
- kcat/Km [3]: 110000 M⁻¹ s⁻¹
- Km [4]: 53 ± 3.6 µM
- kcat [4]: 8.1 ± 0.37 s⁻¹
- kcat/Km [4]: 150000 M⁻¹ s⁻¹
- Km [5]: 36 ± 3.1 µM
- kcat [5]: 370 ± 15 s⁻¹
- kcat/Km [5]: 1e+07 M⁻¹ s⁻¹
- Km [6]: 24 ± 1.9 µM
- kcat [6]: 20 ± 0.66 s⁻¹
- kcat/Km [6]: 860000 M⁻¹ s⁻¹
- Km [7]: 54 ± 4.3 µM
- kcat [7]: 0.7 ± 0.03 s⁻¹
- kcat/Km [7]: 13000 M⁻¹ s⁻¹

Molecule: O=C(O)c1cccc(C(=O)O)n1 [dipicolinic acid]
- Ki (IMP-27 [1]; read-out: Ki): 4.6 ± 0.13 mM

Molecule: C[C@H]1[C@H](NC(=O)/C(=N\OC(C)(C)C(=O)O)c2csc(N)n2)C(=O)N1S(=O)(=O)O [aztreonam]
- Ki (IMP-27 [8]): > 23 mM

Molecule: CCN1CCN(C(=O)N[C@@H](C(=O)N[C@@H]2C(=O)N3[C@@H]2SC(C)(C)[C@@H]3C(=O)O)c2ccccc2)C(=O)C1=O [piperacillin]
- Ki (IMP-27 [1]; read-out: IMP-27 / Km or Ki): 3 mM
